Measured values reported in a protein production outcome set (Wang et al. 2014).

Experiment: label from the status in PepcDB records

Q: Which protein production does the source give for “MTTIRRFSCNDLLRFTSVNLDHLTETFNMSFYMTYLARWPDYFHVAEGPGNRVMGYIMGKVEGQGESWHGHVTAVTVSPEYRRQQLAKKLMNLLEDISDKIDKAYFVDLFVRASNTPAIKMYEKLGYIIYRRVLRYYSGEEDGLDMRKALSRDVEKKSVIPLKRPITPDELEYD” here?
A: failed

Q: Which protein production does the source give for “MTTKAVLISSGVATVALLLKLSVPVAVDFSVSRAPILWSSLLSWLKPPYLYVVTNGIIITIVASSKYYRSHHDRDEEDEIVVYGGGGYKIQTEEPIVNQHQASPRILEVKDLDTGAHFGFVVANLEAEELESEAVTAVVFDDEEEEKKIIDSAATAEDEIEEELKSVIMVENSDLVESDVIPPPMMIESENLPPIEKPLVTSRFGHRKLMKASQEGGRALRVTKPKKNETLENTWKMITEGKSTPLTRQLYRRSDTFGRGDSGGVDGEVKPVYKKSDTFRDRTNYYQLAETAKVRKEPSLSQEELNRRVEAFIKKFNEEMKLQRMESLRQYKEITSRGV” here?
A: failed

Q: Which protein production does the source give for “MTTKPRLCTALLTLAIAVSASAPVLAQSMAGGSAKNRYANQTKLDPYPPEGGWQGLANLLEAAKPGVDTRLDPTPSQITDRIEELLNRGANEEALSLIERREAAIKGQRGADVQLMFQHARALAALGRADEAIAVYSDMTTQFPELPEPWNNLAALYASRGELERAQDSLQMALRANPDYAAARANLGDIQLMMALRTYRQEEARGVPGMKARVEEIESLLKDKQPK” here?
A: failed

Q: For “MTTKRVKKMGKEEMKEMFDLVIYAFNQEPTAERQERFEKLLSHTQSYGFLIDEQLTSQVMATPFQVNFHGVRYPMAGIGYVASYPEYRGEGGISAIMKEMLADLAKQKVALSYLAPFSYPFYRQYGYEQTFEQAEYTIKTEDWPRVKRVPGTIKRVSWADGKEVIKDVYLENQRAHSGGVIRETWWLDYTLNRASKPNNQAIYYSSEGKAEGYVIYRIAAGTFEIVEWNYLTNTAFKALAGFIGSHSGSVQSFHWINGFAGKDLNDLMPTPAASVKILPYMMARIVELQTFLEKYPFQSGEKETYSLEIEDSYGPWNEGIWTITIDEQGKATVTKGAAEKEGTAALKADIQTWTQLFLGYRSAETLSFYERLQGDATIAQRLGQRLVKGMPILEDYF”, which protein production is on record?
A: not failed

Q: Which protein production does the source give for “MTTMQSRERLVKWLQDAYAMEKEAETMMAAMASRIEHYPELKRRIEQHVEETQQQSAGVQRCLELLNGSIPTAKGMLSSVLASMHAAGNSMMTDEVTKGVGISYAFEHLEIASYRALVVAARSAGEQEVAQICEDILQQEIEMAEWLIEHQEAIVVAFLEREQLEGVTAKR” here?
A: not failed

Q: With “MTTPPARTAKQRIQDTLNRLELDVDAWVSTAGADGGAPYLVPLSYLWDGETFLVATPAASPTGRNLSETGRVRLGIGPTRDLVLVEGTALPLEPAGLPDGVGDTFAEKTGFDPRRLTTSYLYFRISPRRVQAWREANELSGRELMRDGEWLVTD” as the sequence, how does the protein production read?
A: not failed

Q: For “MTTPSRRRLMRDFKKLQEDPPAGVSGAPTEDNILTWEAIIFGPQETPFEDGTFKLSLEFTEEYPNKPPTVKFISKMFHPNVYADGSICLDILQNRWSPTYDVAAILTSIQSLLDEPNPNSPANSLAAQLYQENRREYEKRVQQIVEQSWLNFGENEGDAVLKDDVEIEEIAAPGANDADDDRMDEGASGSNA”, which protein production is on record?
A: not failed

Q: With “MTTPTPIRMLILEDSEDDLLLLLREVRRGGIDPAYERADSAAGLRRALDAGEWDVIVSDYNMPQFGALPALDIVKERGLDVPFIIVSGKIGEDLAVAAMKAGAHDYLMKGNLSRLVPAIERELREADERRRRRQAEEAMHAQFNQISTIFDSLNALVYVVDMNSYELLYLNKFGAQLFGEAWEGRTCHDVLHGGRSTPCDFCTNDKLIMDGKALPPYIWEYQNSISSRWYQCIDKAIRWTDGRMVRMEIAIDITERKEMERMKDEMISAVSHEMHTPLTAMMGFTEFLLENEVDRDLQKNYLKTIYRETERLNELITNFLQLQRLKASMVKFRITPVAVGLLVADVVSLYAAASKKHRIVVECPPDLPPVRGNEEQLYQAISNLVSNAIKYSPDGGDVTIGASAAADIVTLWVRDQGIGISPEFQEKIFERFFRVDNSDRRKVGGAGLGLTLVREIVATHGGRSWVESSPGKGSTFFISLPAMT” as the sequence, how does the protein production read?
A: failed

Q: With “MTTPVNGSVIPLISLRESRMPSLTDGAIRRALKQVEQTQKPVTLADGEGRGIGRLILFVRPMPTRVIAYWLVQQWRAGARSRKKIGAYPSMSLNQARNIFDRDFADAIQKGRSIKALGDTRAGTLGDLFDAYIAHLKSSGKKSWKEAEKGLNKVADTLGRHRPARDIEPHEIVDIIRPIYGRGTRSMADHVRGYLRAAFSWGIKSEHDYRHASPRRFGLTKNPAAGIPSEPYVPGNRWLDEEEFLRLYRWLECPDTPVHPPYTRAVRLLMLTGQRVEEIARLHIAQWDAKERIIDWSTTKNGKPHAIPVPDLAAELLESIKPNNYGWFFPSAFDPSKPVAHNTLYSFMWRQRERGVIPVVTNRDLRRTWKTLAGKAGLSKEIRDRLQNHTLQDVSSKAYDRWNYMPEKRAAMKQWNSFVRSVLTPDRLTSAA” as the sequence, how does the protein production read?
A: failed

Q: With “MTTQKLLSDCQFCSVVSKNNGEDPIGTANTSDNWLVLEAALPWTEEHLHSDRILSQIHDLFHELENRHIPVIPIAIAPDREYSVPGYVRALHYKRPTKSFAEFEKQEFLIPESQIGQFTSGFLEYPNDLDQFQTYQQPKNHIREIMVCTHGNVDVACSRFGYPIYQNLRQNYAAKSAGQLRVWRCSHIGGHQFAPTLFDLPTGQFWGHIEPEILDVLVWRNSPVKQLRQFYRGWSGMTKFEQIVEREIWMQHGWEWLQYQKSGQVLAKDTTNDEWNADWAEVRIDFTSPDNSIQGSYLARVEACSQVMTVFNSGKEQPLETVKQYRVSQLTQQLINI” as the sequence, how does the protein production read?
A: failed

Q: With “MTTQMPIASPRTEFYERAFGGFHDQAVAEVRKETYGEDLGQNDWSTVDEMRQFSQWLELSPQSHLLDVCSGSGGPALFLARNSGCRVTGVDLHPDALQTGRQLAQALELHDRSQFVECDVRQRMPFPDGTFDALWCIDSVIHIPDRLALLREWCRLLKPGGRFLYTDPTLVTGMVSKEEILLRGTPGYFLYTPIGLNERLIEQAGLRLDMQADLTHSITELSERWHAAREKRCAVLTATEGEEAFARMQSFLTATHRVSVEGRLSRWVFVGVRP” as the sequence, how does the protein production read?
A: failed

Q: For “MTTQTIDSAPHATWFVGASYGGTDDQMPRFLAEGIWENGYDDKLLEVVRSMRPGERIAIKSSYTRKHGLPFDSRGRAVSVMGIKAVGTITENLNDGKRVKVDWAKVEPVREWYFYTHRATIWRVLPGEWMNDALIAFAFDGKPQDVDRFRNEPFWRERYGTTSPEKQRFEWTDFYEAVAEKLLAHADDRTPLIEGIHEIASRVPGLTYLQDKFPDGTSGPLRDICPFTTMGTFNRSMTDANRKTLAGELAKLLGVTVPVPPSFEGIPVLNNQRSWFFAYADKRGAGDIDALWKVFVAASKMVDGDQLDTRDAFIRAYDEATQVWGVAWNLSTGLYWAHPWEFLTLDSQSRHYINKRLGLNVAISGQQGPCDGRAYLKLLDDLRSRFGEDGYPVHSFPDLSLASWMYKDPVDEPVPAGDIGTNAGAEQETEGEVREAFQVAAPIVPYSVEDILKDGCFLERAEIDRLLDRLRTKKNLILQGPPGTGKTWLAKRLAFALMGQKDDSKVRAVQFHPNLSYEDFVRGWRPTGEGKLSLADGVFMEAIKAASKDPSSKFVVVIEEINRGNPAQIFGELLTLLEAGKRTPNEALELCYPDADGKRRPVHIPENLYVVGTMNIADRSLALVDLALRRRFAFVGLEPRLGQVWRDWVVKECAVDPGLVADIERRIAELNDQIAADARLGKQFRIGHSYVTPAHRLEAGDTKKWFLQVVETEIGPLLDEYWFDAPDEAQKAIARLTQGWLEHHHHHH”, which protein production is on record?
A: not failed

Q: For “MTTSIGGLFFNLVALSLLSAIGLGVVHGITYSKWMPLLGNNATFGIHKFSIQVNVKECIKGCMLAILTMVPFIIVIGIMIAPVFQQLMMMTMLGGSDAGSEFVLQYYPQIMASYFLYFVAILVFASYLYVTLRNLFLNNLTLANGTIRFHSSVTAIGMLLRMLAVLMGSSITCGLAYPWLKMWMVSWIANNTHVQGDLDSLELTNDDKPQDSGSLMWISRGIMPYVPFI”, which protein production is on record?
A: failed

Q: With “MTTTGHVHFYIGTYTNPPSTSTSTGIARLSLNTETGELTRLDDVVVQRNPSYLTTTEHGLYTFSEMDRNEGTELAFFRGSESVSLPINGDYPCHLDIKEPLLAVANYGSGNVSVFQLDRDGKPLGLLADLYVDGCGPNLERQTSPHAHQVTFLKHSHQLVVVDLGSDSVLIYDYDAQPPDFSLSQVIHLPAGSGPRHVVFNQQESTAYVVCELSETLIVLVKHQDKWLISNQTELLEGEENQQAAAAIRLSQDETFLYVSCRAQNKISMFDVSGDTPKRRAAIHCEGVFPRDFVLSHDQKWLLVANQHSNNVVSFRRNPQTGEITPTGYDCEIGSPVCIVEQPLLEHHHHHH” as the sequence, how does the protein production read?
A: failed
